# Data from the supplement of paper PMC5998384.
# Assays:
# HeLa Kyoto [1] = assay: solubility in G1/S (NP-40 vs SDS abundance) (log2 ratio); higher = more soluble; conditions: cell cycle stage: G1/S
# HeLa Kyoto [2] = assay: solubility change mitosis vs G1/S (difference of NP-40 vs SDS log2 ratios) (log2 ratio difference); higher = more soluble in mitosis
# 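Wherever solubility change mitosis vs G1/S (difference of NP-40 vs SDS log2 ratios) is given: synchronized HeLa Kyoto cells (double thymidine block for G1/S, nocodazole release for mitosis), protein amounts in NP-40 versus SDS lysates quantified by mass spectrometry, three biological replicates.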
# 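Wherever solubility in G1/S (NP-40 vs SDS abundance) is given: HeLa Kyoto cells arrested at G1/S by double thymidine block, proteins quantified by TMT10plex mass spectrometry in mild NP-40 versus SDS extracts, three biological replicates.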
# MAP1A, sequence (chain, as listed by the source): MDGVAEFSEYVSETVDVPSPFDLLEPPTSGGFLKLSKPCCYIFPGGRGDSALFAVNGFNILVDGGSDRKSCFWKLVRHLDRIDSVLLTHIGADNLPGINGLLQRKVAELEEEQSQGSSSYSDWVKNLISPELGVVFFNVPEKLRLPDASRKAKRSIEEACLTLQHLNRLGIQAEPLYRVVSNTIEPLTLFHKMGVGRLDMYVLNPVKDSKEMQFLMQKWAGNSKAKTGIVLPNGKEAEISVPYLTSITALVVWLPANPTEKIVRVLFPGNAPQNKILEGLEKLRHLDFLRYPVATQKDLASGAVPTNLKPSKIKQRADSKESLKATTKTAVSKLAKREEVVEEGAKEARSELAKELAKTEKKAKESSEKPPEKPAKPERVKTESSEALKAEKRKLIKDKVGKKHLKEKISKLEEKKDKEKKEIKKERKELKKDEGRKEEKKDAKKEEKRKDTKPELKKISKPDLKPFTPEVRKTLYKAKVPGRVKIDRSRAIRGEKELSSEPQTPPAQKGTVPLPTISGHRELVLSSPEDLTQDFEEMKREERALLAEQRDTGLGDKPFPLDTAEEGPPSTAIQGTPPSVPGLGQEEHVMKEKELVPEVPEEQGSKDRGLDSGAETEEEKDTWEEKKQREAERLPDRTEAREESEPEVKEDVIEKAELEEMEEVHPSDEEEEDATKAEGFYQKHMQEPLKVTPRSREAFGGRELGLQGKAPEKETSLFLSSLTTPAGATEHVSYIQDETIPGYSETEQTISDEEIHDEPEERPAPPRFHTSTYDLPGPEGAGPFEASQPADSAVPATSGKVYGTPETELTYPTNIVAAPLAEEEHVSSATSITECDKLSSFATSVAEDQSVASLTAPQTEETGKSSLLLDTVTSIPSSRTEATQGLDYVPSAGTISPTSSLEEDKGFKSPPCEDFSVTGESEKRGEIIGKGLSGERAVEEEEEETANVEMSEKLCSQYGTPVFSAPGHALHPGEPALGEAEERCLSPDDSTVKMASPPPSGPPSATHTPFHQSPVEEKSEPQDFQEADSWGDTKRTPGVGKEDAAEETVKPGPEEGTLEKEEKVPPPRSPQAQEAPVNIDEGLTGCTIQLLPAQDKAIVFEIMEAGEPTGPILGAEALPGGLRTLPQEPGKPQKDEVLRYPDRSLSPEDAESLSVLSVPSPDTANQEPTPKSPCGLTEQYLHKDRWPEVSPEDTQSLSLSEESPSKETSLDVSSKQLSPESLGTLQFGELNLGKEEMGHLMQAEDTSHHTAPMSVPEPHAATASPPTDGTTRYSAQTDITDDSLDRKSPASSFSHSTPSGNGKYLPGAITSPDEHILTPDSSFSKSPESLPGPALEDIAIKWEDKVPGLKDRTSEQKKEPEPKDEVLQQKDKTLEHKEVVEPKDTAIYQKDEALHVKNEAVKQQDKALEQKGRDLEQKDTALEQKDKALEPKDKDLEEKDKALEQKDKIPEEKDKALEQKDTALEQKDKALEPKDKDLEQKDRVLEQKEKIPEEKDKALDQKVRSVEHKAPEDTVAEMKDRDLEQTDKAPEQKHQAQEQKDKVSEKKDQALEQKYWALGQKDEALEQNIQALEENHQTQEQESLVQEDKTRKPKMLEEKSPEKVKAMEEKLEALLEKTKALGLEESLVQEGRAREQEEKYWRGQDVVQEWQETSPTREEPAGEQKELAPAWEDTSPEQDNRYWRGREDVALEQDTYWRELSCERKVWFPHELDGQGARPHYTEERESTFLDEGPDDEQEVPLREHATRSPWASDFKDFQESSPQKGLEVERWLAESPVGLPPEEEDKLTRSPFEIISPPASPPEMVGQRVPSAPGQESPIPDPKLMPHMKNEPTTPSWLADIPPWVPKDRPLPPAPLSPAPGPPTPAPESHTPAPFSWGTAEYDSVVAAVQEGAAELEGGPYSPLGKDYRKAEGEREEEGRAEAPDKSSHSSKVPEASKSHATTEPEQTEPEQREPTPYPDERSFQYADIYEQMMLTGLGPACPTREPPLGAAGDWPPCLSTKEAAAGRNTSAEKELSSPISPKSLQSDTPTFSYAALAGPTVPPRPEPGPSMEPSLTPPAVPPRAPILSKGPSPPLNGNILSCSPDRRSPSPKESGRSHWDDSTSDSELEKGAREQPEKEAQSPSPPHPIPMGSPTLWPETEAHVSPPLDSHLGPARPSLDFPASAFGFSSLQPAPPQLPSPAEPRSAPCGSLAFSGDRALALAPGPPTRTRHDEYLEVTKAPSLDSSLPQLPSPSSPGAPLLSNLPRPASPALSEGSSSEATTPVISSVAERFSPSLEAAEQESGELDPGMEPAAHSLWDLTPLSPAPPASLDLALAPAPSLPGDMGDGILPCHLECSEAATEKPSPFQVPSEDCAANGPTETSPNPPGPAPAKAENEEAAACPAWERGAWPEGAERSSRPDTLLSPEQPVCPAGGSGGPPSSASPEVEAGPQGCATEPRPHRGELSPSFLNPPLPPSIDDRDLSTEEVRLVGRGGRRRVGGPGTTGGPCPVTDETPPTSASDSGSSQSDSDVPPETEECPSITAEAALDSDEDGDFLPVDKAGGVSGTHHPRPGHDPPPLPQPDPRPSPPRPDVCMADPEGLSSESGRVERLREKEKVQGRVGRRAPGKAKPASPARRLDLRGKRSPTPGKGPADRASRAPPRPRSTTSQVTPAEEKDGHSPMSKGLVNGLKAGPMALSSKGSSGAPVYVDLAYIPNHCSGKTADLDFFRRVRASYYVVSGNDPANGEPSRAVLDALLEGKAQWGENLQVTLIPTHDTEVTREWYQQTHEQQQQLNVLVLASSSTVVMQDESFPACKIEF
Substance,solubility in G1/S (log2) (HeLa Kyoto [1]),solubility change mitosis (log2) (HeLa Kyoto [2])
MAGPQMGGSAEDHPPRKRHAAEKQKKKTVIYTKCFEFESATQRPIDRQRYDENEDLSDVEEIVSVRGFSLEEKLRSQLYQGDFVHAMEGKDFNYEYVQREALRVPLIFREKDGLGIKMPDPDFTVRDVKLLVGSRRLVDVMDVNTQKGTEMSMSQFVRYYETPEAQRDKLYNVISLEFSHTKLEHLVKRPTVVDLVDWVDNMWPQHLKEKQTEATNAIAEMKYPKVKKYCLMSVKGCFTDFHIDFGGTSVWYHVFRGGKIFWLIPPTLHNLALYEEWVLSGKQSDIFLGDRVERCQRIELKQGYTFFIPSGWIHAVYTPVDSLVFGGNILHSFNVPMQLRIYEIEDRTRVQPKFRYPFYYEMCWYVLERYVYCVTQRSHLTQEYQRESMLIDAPRKPSIDGFSSDSWLEMEEEACDQQPQEEEEKDEEGEGRDRAPKPPTDGSTSPTSTPSEDQEALGKKPKAPALRFLKRTLSNESEESVKSTTLAVDYPKTPTGSPATEVSAKWTHLTEFELKGLKALVEKLESLPENKKCVPEGIEDPQALLEGVKNVLKEHADDDPSLAITGVPVVTWPKKTPKNRAVGRPKGKLGPASAVKLAANRTTAGARRRRTRCRKCEACLRTECGECHFCKDMKKFGGPGRMKQSCIMRQCIAPVLPHTAVCLVCGEAGKEDTVEEEEGKFNLMLMECSICNEIIHPGCLKIKESEGVVNDELPNCWECPKCNHAGKTGKQKRGPGFKYASNLPGSLLKEQKMNRDNKEGQEPAKRRSECEEAPRRRSDEHSKKVPPDGLLRRKSDDVHLRKKRKYEKPQELSGRKRASSLQTSPGSSSHLSPRPPLGSSLSPWWRSSLTYFQQQLKPGKEDKLFRKKRRSWKNAEDRMALANKPLRRFKQEPEDELPEAPPKTRESDHSRSSSPTAGPSTEGAEGPEEKKKVKMRRKRRLPNKELSRELSKELNHEIQRTENSLANENQQPIKSEPESEGEEPKRPPGICERPHRFSKGLNGTPRELRHQLGPSLRSPPRVISRPPPSVSPPKCIQMERHVIRPPPISPPPDSLPLDDGAAHVMHREVWMAVFSYLSHQDLCVCMRVCRTWNRWCCDKRLWTRIDLNHCKSITPLMLSGIIRRQPVSLDLSWTNISKKQLSWLINRLPGLRDLVLSGCSWIAVSALCSSSCPLLRTLDVQWVEGLKDAQMRDLLSPPTDNRPGQMDNRSKLRNIVELRLAGLDITDASLRLIIRHMPLLSKLHLSYCNHVTDQSINLLTAVGTTTRDSLTEINLSDCNKVTDQCLSFFKRCGNICHIDLRYCKQVTKEGCEQFIAEMSVSVQFGQVEEKLLQKLS [KDM2B],-0.295,0.226
MAGWWPALSRAARRHPWPTNVLLYGSLVSAGDALQQRLQGREANWRQTRRVATLVVTFHANFNYVWLRLLERALPGRAPHALLAKLLCDQVVGAPIAVSAFYVGMSILQGKDDIFLDLKQKFWNTYLSGLMYWPFVQLTNFSLVPVQWRTAYAGVCGFLWATFICFSQQSGDGTFKSAFTILYTKGTSATEGYPKK [MPV17L],-0.145,-0.192
MAKPAATAAAASEELSQVPDEELLRWSKEELARRLRRAEGEKVGLMLEHGGLMRDVNRRLQQHLLEIRGLKDVNQRLQDDNQELRELCCFLDDDRQKGRKLAREWQRFGRHAAGAVWHEVARSQQKLRELEARQEALLRENLELKELVLLLDEERAALAATGAASGGGGGGGGAGSRSSIDSQASLSGPLSGGAPGAGARDVGDGSSTSSAGSGGSPDHHHHVPPPLLPPGPHKAPDGKAGATRRSLDDLSAPPHHRSIPNGLHDPSSTYIRQLESKVRLLEGDKLLAQQAGSGEFRTLRKGFSPYHSESQLASLPPSYQDSLQNGPACPAPELPSPPSAGYSPAGQKPEAVVHAMKVLEVHENLDRQLQDSCEEDLSEKEKAIVREMCNVVWRKLGDAASSKPSIRQHLSGNQFKGPL [CCDC85C],0.216,0.214
MAKRRAAEPVTFHVPWKRLLLCDFAEQPPPPPLWIRPPGVAHAGQLLGVPEQHRKRKIDAGTMAEPSASPSKRRDSGDNSAPSGQEREDHGLETGDPPLPPPPVLPGPGEELPGARLPGGGGDDGAGRAGPPRGDWGVASRQHNEEFWQYNTFQYWRNPLPPIDLADIEDLSEDTLTEATLQGRNEGAEVDMES [C9ORF40],0.182,-0.227
MAKSNGENGPRAPAAGESLSGTRESLAQGPDAATTDELSSLGSDSEANGFAERRIDKFGFIVGSQGAEGALEEVPLEVLRQRESKWLDMLNNWDKWMAKKHKKIRLRCQKGIPPSLRGRAWQYLSGGKVKLQQNPGKFDELDMSPGDPKWLDVIERDLHRQFPFHEMFVSRGGHGQQDLFRVLKAYTLYRPEEGYCQAQAPIAAVLLMHMPAEQAFWCLVQICEKYLPGYYSEKLEAIQLDGEILFSLLQKVSPVAHKHLSRQKIDPLLYMTEWFMCAFSRTLPWSSVLRVWDMFFCEGVKIIFRVGLVLLKHALGSPEKVKACQGQYETIERLRSLSPKIMQEAFLVQEVVELPVTERQIEREHLIQLRRWQETRGELQCRSPPRLHGAKAILDAEPGPRPALQPSPSIRLPLDAPLPGSKAKPKPPKQAQKEQRKQMKGRGQLEKPPAPNQAMVVAAAGDACPPQHVPPKDSAPKDSAPQDLAPQVSAHHRSQESLTSQESEDTYL [TBC1D10A],0.438,-0.147
MALEGMSKRKRKRSVQEGENPDDGVRGSPPEDYRLGQVASSLFRGEHHSRGGTGRLASLFSSLEPQIQPVYVPVPKQTIKKTKRNEEEESTSQIERPLSQEPAKKVKAKKKHTNAEKKLADRESALASADLEEEIHQKQGQKRKNSQPGVKVADRKILDDTEDTVVSQRKKIQINQEEERLKNERTVFVGNLPVTCNKKKLKSFFKEYGQIESVRFRSLIPAEGTLSKKLAAIKRKIHPDQKNINAYVVFKEESAATQALKRNGAQIADGFRIRVDLASETSSRDKRSVFVGNLPYKVEESAIEKHFLDCGSIMAVRIVRDKMTGIGKGFGYVLFENTDSVHLALKLNNSELMGRKLRVMRSVNKEKFKQQNSNPRLKNVSKPKQGLNFTSKTAEGHPKSLFIGEKAVLLKTKKKGQKKSGRPKKQRKQK [RBM34],-2.26,1.46
MALKGRALYDFHSENKEEISIQQDEDLVIFSETSLDGWLQGQNSRGETGLFPASYVEIVRSGISTNHADYSSSPAGSPGAQVSLYNSPSVASPARSGGGSGFLSNQGSFEEDDDDDWDDWDDGCTVVEEPRAGGLGTNGHPPLNLSYPGAYPSQHMAFRPKPPLERQDSLASAKRGSVVGRNLNRFSCFVRSGVEAFILGDVPMMAKIAETYSIEMGPRGPQWKANPHPFACSVEDPTKQTKFKGIKSYISYKLTPTHAASPVYRRYKHFDWLYNRLLHKFTVISVPHLPEKQATGRFEEDFIEKRKRRLILWMDHMTSHPVLSQYEGFQHFLSCLDDKQWKMGKRRAEKDEMVGASFLLTFQIPTEHQDLQDVEDRVDTFKAFSKKMDDSVLQLSTVASELVRKHVGGFRKEFQKLGSAFQAISHSFQMDPPFCSEALNSAISHTGRTYEAIGEMFAEQPKNDLFQMLDTLSLYQGLLSNFPDIIHLQKGAFAKVKESQRMSDEGRMVQDEADGIRRRCRVVGFALQAEMNHFHQRRELDFKHMMQNYLRQQILFYQRVGQQLEKTLRMYDNL [SNX33],-0.337,-0.033
MALMQELYSTPASRLDSFVAQWLQPHREWKEEVLDAVRTVEEFLRQEHFQGKRGLDQDVRVLKVVKVGSFGNGTVLRSTREVELVAFLSCFHSFQEAAKHHKDVLRLIWKTMWQSQDLLDLGLEDLRMEQRVPDALVFTIQTRGTAEPITVTIVPAYRALGPSLPNSQPPPEVYVSLIKACGGPGNFCPSFSELQRNFVKHRPTKLKSLLRLVKHWYQQYVKARSPRANLPPLYALELLTIYAWEMGTEEDENFMLDEGFTTVMDLLLEYEVICIYWTKYYTLHNAIIEDCVRKQLKKERPIILDPADPTLNVAEGYRWDIVAQRASQCLKQDCCYDNRENPISSWNVKRARDIHLTVEQRGYPDFNLIVNPYEPIRKVKEKIRRTRGYSGLQRLSFQVPGSERQLLSSRCSLAKYGIFSHTHIYLLETIPSEIQVFVKNPDGGSYAYAINPNSFILGLKQQIEDQQGLPKKQQQLEFQGQVLQDWLGLGIYGIQDSDTLILSKKKGEALFPAS [OASL],-0.811,0.156
MAMQEKYPTEGISHVTSPSSDVIQKGSSLGTEWQTPVISEPFRSRFSRCSSVADSGDTAIGTSCSDIAEDFCSSSGSPPFQPIKSHVTIPTAHVMPSTLGTSPAKPNSTPVGPSSSKLPLSGLAESVGMTRNGDLGAMKHSPGLSRDLMYFSGATGENGIEQSWFPAVGHERQEEARKFDIPSMESTLNQSAMMETLYSDPHHRVRFHNPRTSTSKELYRVLPEAKKAPGSGAVFERNGPHSNSSGVLPLGLQPAPGLSKPLPSQVWQPSPDTWHPREQSCELSTCRQQLELIRLQMEQMQLQNGAICHHPAAFGPSLPILEPAQWISILNSNEHLLKEKELLIDKQRKHISQLEQKVRESELQVHSALLGRPAPFGDVCLLRLQELQRENTFLRAQFAQKTEALSREKIDLEKKLSASEVEVQLIRESLKVALQKHSEEVKKQEERVKGRDKHINNLKKKCQKESEQNREKQQRIETLERYLADLPTLEDHQKQSQQLKDSELKSTELQEKVTELESLLEETQAICREKEIQLESLRQREAEFSSAGHSLQDKQSVEETSGEGPEVEMESWQKRYDSLQKIVEKQQQKMDQLRSQVQSLEQEVAQEEGTSQALREEAQRRDSALQQLRTAVKELSVQNQDLIEKNLTLQEHLRQAQPGSPPSPDTAQLALELHQELASCLQDLQAVCSIVTQRAQGHDPNLSLLLGIHSAQHPETQLDLQKPDVIKRKLEEVQQLRRDIEDLRTTMSDRYAQDMGENCVTQ [CEP85],0.35,-0.194
MAP1A,-0.122,-0.0549
MAPGSRGERSSFRSRRGPGVPSPQPDVTMLSRLLKEHQAKQNERKELQEKRRREAITAATCLTEALVDHLNVGVAQAYMNQRKLDHEVKTLQVQAAQFAKQTGQWIGMVENFNQALKEIGDVENWARSIELDMRTIATALEYVYKGQLQSAPS [BLOC1S1],0.51,0.133
MAPVSGSRSPDREASGSGGRRRSSSKSPKPSKSARSPRGRRSRSHSCSRSGDRNGLTHQLGGLSQGSRNQSYRSRSRSRSRERPSAPRGIPFASASSSVYYGSYSRPYGSDKPWPSLLDKEREESLRQKRLSERERIGELGAPEVWGLSPKNPEPDSDEHTPVEDEEPKKSTTSASTSEEEKKKKSSRSKERSKKRRKKKSSKRKHKKYSEDSDSDSDSETDSSDEDNKRRAKKAKKKEKKKKHRSKKYKKKRSKKSRKESSDSSSKESQEEFLENPWKDRTKAEEPSDLIGPEAPKTLTSQDDKPLNYGHALLPGEGAAMAEYVKAGKRIPRRGEIGLTSEEIASFECSGYVMSGSRHRRMEAVRLRKENQIYSADEKRALASFNQEERRKRENKILASFREMVYRKTKGKDDK [NKAP],-0.301,0.107
MAQEKMELDLEPDTSYGGTLRRSSSAPLIHGLSDLSQVFQPYTLRTRRNSTTIMSRHSLEEGLDMVNRETAHEREMQTAMQISQSWDESLSLSDSDFDKPEKLYSPKRIDFTPVSPAPSPTRGFGKMFVSSSGLPPSPVPSPRRFSRRSQSPVKCIRPSVLGPLKRKGEMETESQPKRLFQGTTNMLSPDAAQLSDLSSCSDILDGSSSSSGLSSDPLAKGSATAESPVACSNSCSSFILMDDLSPK [FAM122B],1.18,-0.79
